Test results taken from FireProtDB (doi:10.1021/bi011146t).

Details: Alicyclobacillus acidocaldarius subsp. acidocaldarius, pH 7.5, 20 °C, CD, sodium phosphate 20 mM, reversible: no

Substance: wild type (from UniProt Q7SIG1)
- denaturant m value (GdnHCl): 2.08 kcal/mol/M
- denaturant midpoint (higher = more stable) (GdnHCl): 1.9 M
- unfolding free energy (GdnHCl): 18 kJ/mol
- denaturant m value (Urea): 2.63 kcal/mol/M
- denaturant midpoint (higher = more stable) (Urea): 5.9 M
- unfolding free energy (Urea): 63 kJ/mol
